For this test, the target named is recombinant human Prx4 (human) (UniProt Q13162). The experiment in a line: SPR; ProteOn XPR36; Ero1α (WT) or Prx4 amine-coupled to a GLC chip, PDI or ERp44 as analyte (0.444–36 μM); 25 °C; 20 mM HEPES-NaOH pH 7.4, 150 mM NaCl, 0.001% Tween, 2 mM EDTA; two-state model. A general note: Surface plasmon resonance follows binding to a sensor surface in real time, without labels.

For orientation: Kd means the constant that tells how readily two partners part at equilibrium.

Chain of recombinant human Prx4 (human) (Q13162 38-271): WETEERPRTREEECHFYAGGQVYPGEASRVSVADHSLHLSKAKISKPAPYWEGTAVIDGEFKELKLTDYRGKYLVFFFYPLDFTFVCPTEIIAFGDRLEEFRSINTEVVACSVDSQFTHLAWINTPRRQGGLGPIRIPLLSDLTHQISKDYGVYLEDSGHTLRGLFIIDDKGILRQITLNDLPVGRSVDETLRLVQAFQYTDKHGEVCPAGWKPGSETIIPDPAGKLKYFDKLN
Chain of recombinant human PDI, P07237 18-508 (natural protein; other documents disagree on this pair) (P07237 18-508): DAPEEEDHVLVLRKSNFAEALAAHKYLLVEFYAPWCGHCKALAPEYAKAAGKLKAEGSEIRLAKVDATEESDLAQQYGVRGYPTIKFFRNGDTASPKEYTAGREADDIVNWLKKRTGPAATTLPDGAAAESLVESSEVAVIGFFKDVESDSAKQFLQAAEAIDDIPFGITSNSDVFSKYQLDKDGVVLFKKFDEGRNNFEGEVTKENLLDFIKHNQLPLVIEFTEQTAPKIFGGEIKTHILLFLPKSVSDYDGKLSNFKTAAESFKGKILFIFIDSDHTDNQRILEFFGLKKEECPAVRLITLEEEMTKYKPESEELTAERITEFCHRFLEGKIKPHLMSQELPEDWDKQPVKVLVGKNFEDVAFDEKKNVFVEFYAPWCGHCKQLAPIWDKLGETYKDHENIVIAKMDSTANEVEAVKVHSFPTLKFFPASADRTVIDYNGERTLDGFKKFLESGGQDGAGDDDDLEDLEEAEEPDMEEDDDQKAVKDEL

For the substance “recombinant human PDI, P07237 18-508 (natural protein; other documents disagree on this pair)”, the Kd was determined as 10.6 µM.

The values are drawn from PMC3795256.
